Drawing on article PMC11528890, this text covers stoichiometry N (Fe-protein:MoFe-protein) for one substance.

“And” between values parts separate entries of the source, which are not always exact repeats. Equal entries are not always repeated.

For the assay, the target named is nitrogenase MoFe-protein (Azotobacter vinelandii) (UniProt P07328). In words: cryo-EM structure; single particle cryoEM of the ADP-AlF4- stabilized complex of the two nitrogenase proteins; grids prepared anaerobically in the vinyl tent; carbon-layered grids.
Chain of UniProt P07328 (P07328 whole entry, chain 1 of 2): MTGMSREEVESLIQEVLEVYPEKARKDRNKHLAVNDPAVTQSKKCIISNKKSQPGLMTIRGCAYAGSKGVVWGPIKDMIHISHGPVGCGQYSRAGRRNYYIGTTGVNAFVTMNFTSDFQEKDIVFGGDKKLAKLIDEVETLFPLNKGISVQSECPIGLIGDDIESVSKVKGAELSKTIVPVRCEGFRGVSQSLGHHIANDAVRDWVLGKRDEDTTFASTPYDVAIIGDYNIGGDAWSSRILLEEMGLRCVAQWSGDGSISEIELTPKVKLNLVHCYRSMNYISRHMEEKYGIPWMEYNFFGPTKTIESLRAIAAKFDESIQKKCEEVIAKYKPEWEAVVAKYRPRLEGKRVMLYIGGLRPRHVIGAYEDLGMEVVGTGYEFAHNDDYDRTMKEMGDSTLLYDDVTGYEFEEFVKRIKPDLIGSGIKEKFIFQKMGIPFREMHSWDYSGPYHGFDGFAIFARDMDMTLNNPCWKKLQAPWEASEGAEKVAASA
Chain of UniProt P07328 (P07329 whole entry, chain 2 of 2, further chain): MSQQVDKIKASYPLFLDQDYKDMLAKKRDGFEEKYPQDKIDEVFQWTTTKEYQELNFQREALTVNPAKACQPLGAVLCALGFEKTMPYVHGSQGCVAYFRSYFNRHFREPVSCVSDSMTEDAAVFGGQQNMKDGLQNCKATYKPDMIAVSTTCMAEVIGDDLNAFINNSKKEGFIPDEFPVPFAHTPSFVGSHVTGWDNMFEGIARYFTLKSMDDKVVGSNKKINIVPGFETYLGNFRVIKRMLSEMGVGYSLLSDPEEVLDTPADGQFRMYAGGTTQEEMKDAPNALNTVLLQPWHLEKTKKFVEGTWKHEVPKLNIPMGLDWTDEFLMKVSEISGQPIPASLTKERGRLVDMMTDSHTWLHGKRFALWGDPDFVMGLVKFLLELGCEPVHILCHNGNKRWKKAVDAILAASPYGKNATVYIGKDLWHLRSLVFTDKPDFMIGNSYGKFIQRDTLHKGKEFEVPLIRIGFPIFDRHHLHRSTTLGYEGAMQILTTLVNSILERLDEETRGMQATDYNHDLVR

Consider nitrogenase Fe-protein (enzyme), for which the stoichiometry N (Fe-protein:MoFe-protein) was 2 and 1.
